Experimental findings from patent US20260022175A1 (Chugai, published 2026) are described below.

In experiment [1] the target is T1, human FcγRIIb extracellular domain (human, UniProt P31994 43-217).
T1 construct: extracellular domain; also called hFcγR IIb
T1 sequence (looked up): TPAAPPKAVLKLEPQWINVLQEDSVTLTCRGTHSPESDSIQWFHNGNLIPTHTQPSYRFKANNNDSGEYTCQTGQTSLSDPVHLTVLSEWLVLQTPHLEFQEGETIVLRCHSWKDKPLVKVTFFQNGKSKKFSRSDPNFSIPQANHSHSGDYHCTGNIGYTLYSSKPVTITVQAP
In words: SPR Biacore 8K+, antibody captured, FcγR as analyte, steady state affinity model.

The target of experiment [2] is T2, human FcγRIa extracellular domain (human, UniProt P12314 16-292).
T2 construct: extracellular domain; also called hFcγR Ia; hFcγRIa
T2 sequence (P12314 16-292): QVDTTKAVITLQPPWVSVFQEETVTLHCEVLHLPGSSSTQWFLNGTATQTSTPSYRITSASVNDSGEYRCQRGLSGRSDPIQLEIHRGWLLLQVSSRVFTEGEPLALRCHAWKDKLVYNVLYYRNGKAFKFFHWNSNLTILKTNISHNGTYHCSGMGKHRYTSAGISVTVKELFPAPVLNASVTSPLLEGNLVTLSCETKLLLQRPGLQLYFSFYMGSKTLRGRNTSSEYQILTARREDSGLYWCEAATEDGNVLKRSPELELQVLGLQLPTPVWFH
The experiment can be described thus: SPR Biacore 8K+, antibody captured, FcγR as analyte, 1:1 Langmuir model.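 Note: antibodies captured on a streptavidin chip through a biotinylated anti-human Fab kappa reagent, with FcγR extracellular domains injected in pH 7.4 phosphate buffer at 25 °C.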

For experiment [3], the target named is T3, human FcγRIIa H extracellular domain (human, UniProt P12318 34-217).
T3 construct: extracellular domain; also called hFcγR IIa H
T3 sequence (looked up): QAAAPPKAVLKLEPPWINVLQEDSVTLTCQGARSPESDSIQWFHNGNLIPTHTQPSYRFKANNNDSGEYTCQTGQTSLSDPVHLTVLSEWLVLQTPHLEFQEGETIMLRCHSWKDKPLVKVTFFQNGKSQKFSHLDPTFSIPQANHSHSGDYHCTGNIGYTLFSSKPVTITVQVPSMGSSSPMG
The experiment is described as above.

Experiment [4] concerns the target T4, human FcγRIIa R extracellular domain (human, UniProt P12318 34-217).
T4 construct: extracellular domain; also called hFcγR IIa R
T4 sequence (looked up): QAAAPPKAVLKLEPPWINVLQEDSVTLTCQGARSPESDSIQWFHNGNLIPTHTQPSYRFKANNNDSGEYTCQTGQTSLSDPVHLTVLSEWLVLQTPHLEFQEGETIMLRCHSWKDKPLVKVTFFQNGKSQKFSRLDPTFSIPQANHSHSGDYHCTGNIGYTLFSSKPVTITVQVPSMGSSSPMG
Described as above.

The target of experiment [5] is T5, human FcγRIIIa F extracellular domain (human, UniProt P08637 17-208).
T5 construct: extracellular domain; also called hFcγR IIIa F
T5 sequence (P08637 17-208): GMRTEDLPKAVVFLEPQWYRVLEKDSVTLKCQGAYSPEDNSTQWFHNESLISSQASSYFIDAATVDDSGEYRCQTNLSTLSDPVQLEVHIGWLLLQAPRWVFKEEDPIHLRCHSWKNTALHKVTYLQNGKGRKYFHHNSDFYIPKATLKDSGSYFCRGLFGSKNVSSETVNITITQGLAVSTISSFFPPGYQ
The experiment is described as above.

Experiment [6] addresses T6, human FcγRIIIa V extracellular domain (human, UniProt P08637 17-208).
T6 construct: extracellular domain; also called hFcγR IIIa V
The experiment is described as above.

In experiment [7] the target is hFcγRIIIaV on hFcγRIIIaV-expressing Jurkat cells (human, UniProt P08637 17-254). The experiment can be described thus: cell-based or functional assay.
Chain of hFcγRIIIaV on hFcγRIIIaV-expressing Jurkat cells (P08637 17-254, form in doubt): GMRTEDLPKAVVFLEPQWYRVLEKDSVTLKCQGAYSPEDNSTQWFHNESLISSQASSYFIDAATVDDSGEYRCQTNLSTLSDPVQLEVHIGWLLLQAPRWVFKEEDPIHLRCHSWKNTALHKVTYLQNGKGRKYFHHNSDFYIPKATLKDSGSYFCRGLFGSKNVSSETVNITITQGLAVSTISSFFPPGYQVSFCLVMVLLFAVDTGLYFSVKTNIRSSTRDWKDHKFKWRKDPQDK
Experiment [8] has as its target T2, human FcγRIa extracellular domain. In words: SPR Biacore 8K+; KD of G1d divided by KD of this antibody.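 Note: antibodies captured on an anti-Fab-kappa streptavidin chip, soluble FcγR ectodomains flowed over, KD by steady-state fit for FcγRIIb and Langmuir kinetic model for the other receptors.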 For orientation: SPR reads the build-up and loss of mass on a sensor chip optically.
Method: (§1) The interaction between the produced antibodies and human FcγRs was analyzed using Biacore 8K+ by the method below. For the running buffer, 50 mM Na-Phosphate, 150 mM NaCl, and 0.05% Tween20 (pH 7.4) was used, and measurement was performed at 25° C. The sensor chip used was a Series S SA chip (GE Healthcare) onto which CaptureSelect Human Fab-kappa Kinetics Biotin Conjugate (Thermo Fisher Scientific) was immobilized. An antibody of interest was captured onto this chip, and each FcγR diluted with the running buffer was allowed to interact with it. The chip was regenerated using 10 mM Glycine-HCl (pH 1.5), and repeatedly used to capture antibodies and perform measurement. The dissociation constants KD (mol/L) of each antibody for FcγRs were calculated using Biacore Insight Evaluation Software, with a steady state affinity model for the dissociation constant for FcγRIIb and a 1:1 Langmuir binding model for the dissociation constants for the other FcγRs (Table 48).
The target of experiment [9] is T3, human FcγRIIa H extracellular domain. The description is as above.
Method: as §1
Experiment [10] deals with T4, human FcγRIIa R extracellular domain. The description is as above.
Method: as §1
In experiment [11] the target is T1, human FcγRIIb extracellular domain. The description is as above.
Method: as §1
The target in experiment [12] is T5, human FcγRIIIa F extracellular domain. The description is as above.
Method: as §1
The target of experiment [13] is T6, human FcγRIIIa V extracellular domain. The experiment is described as above.
Method: as §1
In experiment [14] the target is T7, hFcγRIIaH on hFcγRIIaH-expressing Jurkat cells (human, UniProt P12318 34-317).
T7 sequence (looked up): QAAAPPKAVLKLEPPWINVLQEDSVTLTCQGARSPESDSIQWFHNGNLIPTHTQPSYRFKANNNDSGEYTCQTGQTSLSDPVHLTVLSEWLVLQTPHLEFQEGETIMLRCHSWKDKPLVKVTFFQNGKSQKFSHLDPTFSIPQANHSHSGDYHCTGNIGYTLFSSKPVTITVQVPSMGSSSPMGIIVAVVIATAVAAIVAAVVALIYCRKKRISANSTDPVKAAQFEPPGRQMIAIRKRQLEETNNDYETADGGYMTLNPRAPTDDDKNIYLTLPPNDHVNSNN
In words: cell-based or functional assay.

The target of experiment [15] is T3, human FcγRIIa H extracellular domain. In words: SPR Biacore 8K+; KD for FcγRIIb divided by KD for this FcγR.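 Note: antibodies captured on an anti-human Fab kappa SA chip with soluble human FcγR ectodomains flowed over, FcγRIIb KD from steady-state fit, other FcγR KD from Langmuir model.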
Experiment [16] addresses T4, human FcγRIIa R extracellular domain. Described as above.
For experiment [17], the target named is T5, human FcγRIIIa F extracellular domain. Described as above.
The target of experiment [18] is T6, human FcγRIIIa V extracellular domain. The description is as above.
Experiment [19] addresses T8, human C1q protein (Calbiochem) (human, UniProt P02745 23-245; P02746 28-253; P02747 29-245).
T8 construct: bought; also called hC1q
The experiment can be described thus: ELISA: antibody coated on the plate at the varied concentration, hC1q 3 µg/mL added, detected with HRP-conjugated anti-hC1q antibody, O.D (450-690nm). (In general: In an ELISA, binding on a coated surface is turned into a signal by an enzyme label.)
Method: The antigen used was a human C1q protein (hC1q).
First, a 96-well maxisorp plate (Thermo fisher) was coated at 4° C. overnight with 50 μL of solutions containing each antibody prepared at 30, 10, 3, 1, 0.3, 0.1, and 0.03 μg/mL in PBS. Each well of the plate was washed with Wash buffer to remove the antibody not bound to the plate, and then the wells were blocked with 200 μL of Blocking/dilution Buffer at room temperature for 2 hours or longer. After the Blocking/dilution Buffer was removed from each well, hC1q (Calbiochem) prepared such that the final concentration was 3 μg/mL in Blocking/dilution Buffer was added at 50 μL per well. The plate was then allowed to stand at room temperature for 1 hour to allow hC1q to bind to the antibody within each well. After washing with Wash Buffer, 50 μL of an HRP-conjugated anti-hC1q antibody (AbDSerotec) diluted with Blocking/dilution Buffer was added to each well, and the plate was incubated while standing for 1 hour. After washing with Wash Buffer, TMB single solution (Invitrogen) was added. The color development reaction of the solution in each well was stopped by addition of Stop Buffer, and then the developed color was measured by absorbance at 450 nm and 690 nm.

As a reminder, the Kd is the constant that tells how readily two partners part at equilibrium. Read a low Kd as tighter binding.

T6 sequence (P08637 17-208 F176V limits assumed): as the sequence (P08637 17-208) above, with F160V counted along it
T8 sequence (P02745 23-245 limits assumed, chain 1 of 3): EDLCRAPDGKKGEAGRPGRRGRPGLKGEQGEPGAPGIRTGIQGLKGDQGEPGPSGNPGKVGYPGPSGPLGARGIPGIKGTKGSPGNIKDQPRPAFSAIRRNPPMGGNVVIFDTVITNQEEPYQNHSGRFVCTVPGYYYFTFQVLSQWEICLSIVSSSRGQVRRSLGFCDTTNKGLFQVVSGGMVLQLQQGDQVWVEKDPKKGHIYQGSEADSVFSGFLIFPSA
T8 sequence (P02746 28-253 limits assumed, chain 2 of 3): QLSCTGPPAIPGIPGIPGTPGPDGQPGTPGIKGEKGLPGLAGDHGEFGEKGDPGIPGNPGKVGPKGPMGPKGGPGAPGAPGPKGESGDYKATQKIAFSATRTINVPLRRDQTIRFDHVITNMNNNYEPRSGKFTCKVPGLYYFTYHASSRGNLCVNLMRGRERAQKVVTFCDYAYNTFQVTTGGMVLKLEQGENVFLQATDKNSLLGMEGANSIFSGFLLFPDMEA
T8 sequence (P02747 29-245 limits assumed, chain 3 of 3): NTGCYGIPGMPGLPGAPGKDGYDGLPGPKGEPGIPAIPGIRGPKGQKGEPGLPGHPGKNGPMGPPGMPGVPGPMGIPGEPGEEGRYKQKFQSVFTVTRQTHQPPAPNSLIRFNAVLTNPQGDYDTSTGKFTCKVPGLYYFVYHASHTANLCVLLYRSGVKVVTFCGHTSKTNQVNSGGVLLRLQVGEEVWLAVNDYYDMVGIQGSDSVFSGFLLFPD

B1: H240-Kn496/L73-k0//H240-Hl516/L73-k0 (antibody, human IgG1, kappa)
heavy 1: QDQLVQSGAEVKKPGASVKVSCKASGFNIKDTYIQWVRQAPGQGLEWMGRIDPLRKQTKYREKFEGRVTITADTSTNTAYMELSSLRSEDTAVYYCVRSGREFDYWGQGTLVTVSSASTKGPSVFPLAPSSKSTSGGTAALGCLVKDYFPEPVTVSWNSGALTSGVHTFPAVLQSSGLYSLSSVVTVPSSSLGTQTYICNVNHKPSNTKVDKKVEPKSCDKTHTCPPCPAPEFQWGPMVFLFPPKPKDVLMISRTPEVTCVVVDVSDEEPEVKFNWYVDGVEVHNAKTKPREEQYNATYRVVSVLPVLHQDWLNGKEYKCKVSNKALPAPIEKTISKAKGQPREPQVCTLPPSRDELTKNQVSLWCLVKGFYPSDIAVEWESNGQPENNYKTTPPVLDSDGSFFLYSKLTVDKSRWQQGNVFSCSVMHEALHNHYTQKSLSLSP
heavy 2: QDQLVQSGAEVKKPGASVKVSCKASGFNIKDTYIQWVRQAPGQGLEWMGRIDPLRKQTKYREKFEGRVTITADTSTNTAYMELSSLRSEDTAVYYCVRSGREFDYWGQGTLVTVSSASTKGPSVFPLAPSSKSTSGGTAALGCLVKDYFPEPVTVSWNSGALTSGVHTFPAVLQSSGLYSLSSVVTVPSSSLGTQTYICNVNHKPSNTKVDKKVEPKSCDKTHTCPPCPAPELLGGPSVFLFPPKPKDVLMISRTPEVTCVVVDVSHEEPEVKFNWYVDGVEVHNAKTKPREEQYNATYRVVSVLPVLHQDWLNGKEYKCKVSNDALPAPIEETISKAKGQPREPQVYTLPPSRCELTKNQVSLSCAVKGFYPSDIAVEWESNGQPENNYKTTPPVLDSDGSFFLVSKLTVDKSRWQQGNVFSCSVMHEALHNHYTQKSLSLSP
light: DIQMTQSPSSLSASVGDRVTITCRASQDIHKYIAWYQQKPGQAPRLLIQYTSTLQPGVPSRFSGSGSGTDYTFTISSLQPEDIATYYCLQYEQLRTFGGGTKVEIKRTVAAPSVFIFPPSDEQLKSGTASVVCLLNNFYPREAKVQWKVDNALQSGNSQESVTEQDSKDSTYSLSSTLTLSKADYEKHKVYACEVTHQGLSSPVTKSFNRGEC
notes: also called EGL-ART11; ART11
Take B1: the Kd in experiment [1] came out at 14600 nM; in [2], 0.0381 nM; in experiment [3] it was 231 nM; in experiment [4], 1270 nM; in experiment [5], 21 nM; in experiment [6], 3.67 nM. Also, in experiment [7], the “EC50 value (hFcγRIIIaV ADCC Reporter Bioassay, Hepa1-6/hEREG target cells)” value came out at 0.000413 µg/mL. For the same molecule, the “Relative value to KD between G1d and hFcgRs” value in [8] worked out at 2.4; in [9], 4.9; in [10], 1.3; in [11], 0.7; in [12] it was 141; in [13], 97.5. In addition, in [14], the “EC50 value (hFcγRIIaH ADCP Reporter Bioassay, Hepa1-6/hEREG target cells)” value came to 0.0367 µg/mL. Besides, the “A/I ratio (KD for FcγRIIb divided by KD for each FcγR)” value in experiment [15] is 63.3; in experiment [16], 11.5; in [17], 694; in experiment [18], 3970. The binding result in [19] is given as “binds”.

B2: H240-Kn494/L73-k0//H240-Hl514/L73-k0 (antibody, human IgG1, kappa)
heavy 1: QDQLVQSGAEVKKPGASVKVSCKASGFNIKDTYIQWVRQAPGQGLEWMGRIDPLRKQTKYREKFEGRVTITADTSTNTAYMELSSLRSEDTAVYYCVRSGREFDYWGQGTLVTVSSASTKGPSVFPLAPSSKSTSGGTAALGCLVKDYFPEPVTVSWNSGALTSGVHTFPAVLQSSGLYSLSSVVTVPSSSLGTQTYICNVNHKPSNTKVDKKVEPKSCDKTHTCPPCPAPEFQWGPMVFLFPPKPKDVLMISRTPEVTCVVVDVSDEEPEVKFNWYVDGVEVHNAKTKPREEQYNATYRVVSVLPVLHQDWLNGKEYKCKVSNKALPAPEEKTISKAKGQPREPQVCTLPPSRDELTKNQVSLWCLVKGFYPSDIAVEWESNGQPENNYKTTPPVLDSDGSFFLYSKLTVDKSRWQQGNVFSCSVMHEALHNHYTQKSLSLSP
heavy 2: QDQLVQSGAEVKKPGASVKVSCKASGFNIKDTYIQWVRQAPGQGLEWMGRIDPLRKQTKYREKFEGRVTITADTSTNTAYMELSSLRSEDTAVYYCVRSGREFDYWGQGTLVTVSSASTKGPSVFPLAPSSKSTSGGTAALGCLVKDYFPEPVTVSWNSGALTSGVHTFPAVLQSSGLYSLSSVVTVPSSSLGTQTYICNVNHKPSNTKVDKKVEPKSCDKTHTCPPCPAPELLGGPSVFLFPPKPKDVLMISRTPEVTCVVVDVSHEEPEVKFNWYVDGVEVHNAKTKPREEQYNATYRVVSVLPVLHQDWLNGKEYKCKVSNDALPAPEEETISKAKGQPREPQVYTLPPSRCELTKNQVSLSCAVKGFYPSDIAVEWESNGQPENNYKTTPPVLDSDGSFFLVSKLTVDKSRWQQGNVFSCSVMHEALHNHYTQKSLSLSP
light: DIQMTQSPSSLSASVGDRVTITCRASQDIHKYIAWYQQKPGQAPRLLIQYTSTLQPGVPSRFSGSGSGTDYTFTISSLQPEDIATYYCLQYEQLRTFGGGTKVEIKRTVAAPSVFIFPPSDEQLKSGTASVVCLLNNFYPREAKVQWKVDNALQSGNSQESVTEQDSKDSTYSLSSTLTLSKADYEKHKVYACEVTHQGLSSPVTKSFNRGEC
notes: also called EGL-ART10; ART10
Regarding B2, the Kd was 7250 nM in experiment [1]; 0.0267 nM in [2]; 420 nM in experiment [3]; 1100 nM in experiment [4]; 2.29 nM in experiment [5]; 0.634 nM in [6]. Also, the “EC50 value (hFcγRIIIaV ADCC Reporter Bioassay, Hepa1-6/hEREG target cells)” value in experiment [7] was 0.000107 µg/mL. Further, the “Relative value to KD between G1d and hFcgRs” value in experiment [8] was 3.4; in [9] it was 2.7; in [10] it was 1.5; in experiment [11], 1.4; in experiment [12] it was 1290; in experiment [13], 566. Further, in experiment [14], the “EC50 value (hFcγRIIaH ADCP Reporter Bioassay, Hepa1-6/hEREG target cells)” value came to 0.0419 µg/mL. The “A/I ratio (KD for FcγRIIb divided by KD for each FcγR)” value in [15] was found to be 17.3; in [16] it was 6.6; in experiment [17], 3160; in experiment [18], 11400. Further, the binding result in experiment [19] was “binds”.
